In PMC10673652, “PoWRKY71 is involved in Paeonia ostii resistance to drought stress by directly regulating light-harvesting chlorophyll a/b-binding 151 gene”:
Substitutions are numbered along the chain they refer to.

B1: PoCAB151 promoter W-box probe (dsDNA)
DNA 1: GTGTTTCCTGCATTCGGTCAGCAACCAAATGACC
DNA 2: GGTCATTTGGTTGCTGACCGAATGCAGGAAACAC
B2: PoCAB151 promoter W-box mutant probe (dsDNA)
DNA 1: B1 DNA 1 with G17A, T18A, C19A
DNA 2: B1 DNA 2 with G16T, A17T, C18T

Molecular target: PoWRKY71 (Paeonia ostii, UniProt A0AB38Z7I8 1-311)
Sequence (A0AB38Z7I8 entry or part of it): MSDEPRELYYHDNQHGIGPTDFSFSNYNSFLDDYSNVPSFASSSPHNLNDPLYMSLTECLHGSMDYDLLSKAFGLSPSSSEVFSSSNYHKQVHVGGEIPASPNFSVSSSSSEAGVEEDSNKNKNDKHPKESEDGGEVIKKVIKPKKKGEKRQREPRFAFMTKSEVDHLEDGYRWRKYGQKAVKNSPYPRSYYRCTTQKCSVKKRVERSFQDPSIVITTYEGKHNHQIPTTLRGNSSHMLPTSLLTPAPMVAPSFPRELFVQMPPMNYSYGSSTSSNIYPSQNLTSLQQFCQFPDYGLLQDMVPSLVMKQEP
Assay: EMSA; not stated in the material (EMSA as in Luan et al., ref. 58)
Settings: protein: recombinant, tags: His, SUMO (pET-SUMO), blunt

Binder	binding result	binding result (label: biotin)
B1	binds	
B2		no binding
